# From IntAct's records for PubMed 19318624
# B1: Glycogen accumulation regulator GarA (Mycobacterium tuberculosis (strain ATCC 25618 / P9WJA9 (parent)
# chain: MTDMNPDIEKDQTSDEVTVETTSVFRADFLSELDAPAQAGTESAVSGVEGLPPGSALLVVKRGPNAGSRFLLDQAITSAGRHPDSDIFLDDVTVSRRHAEFRLENNEFNVVDVGSLNGTYVNREPVDSAVLANGDEVQIGKFRLVFLTGPKQGEDDGSTGGP
# B2: Glycogen accumulation regulator GarA (Mycobacterium tuberculosis (strain ATCC 25618 / P9WJA9 (parent)
# chain: B1 chain
# partner: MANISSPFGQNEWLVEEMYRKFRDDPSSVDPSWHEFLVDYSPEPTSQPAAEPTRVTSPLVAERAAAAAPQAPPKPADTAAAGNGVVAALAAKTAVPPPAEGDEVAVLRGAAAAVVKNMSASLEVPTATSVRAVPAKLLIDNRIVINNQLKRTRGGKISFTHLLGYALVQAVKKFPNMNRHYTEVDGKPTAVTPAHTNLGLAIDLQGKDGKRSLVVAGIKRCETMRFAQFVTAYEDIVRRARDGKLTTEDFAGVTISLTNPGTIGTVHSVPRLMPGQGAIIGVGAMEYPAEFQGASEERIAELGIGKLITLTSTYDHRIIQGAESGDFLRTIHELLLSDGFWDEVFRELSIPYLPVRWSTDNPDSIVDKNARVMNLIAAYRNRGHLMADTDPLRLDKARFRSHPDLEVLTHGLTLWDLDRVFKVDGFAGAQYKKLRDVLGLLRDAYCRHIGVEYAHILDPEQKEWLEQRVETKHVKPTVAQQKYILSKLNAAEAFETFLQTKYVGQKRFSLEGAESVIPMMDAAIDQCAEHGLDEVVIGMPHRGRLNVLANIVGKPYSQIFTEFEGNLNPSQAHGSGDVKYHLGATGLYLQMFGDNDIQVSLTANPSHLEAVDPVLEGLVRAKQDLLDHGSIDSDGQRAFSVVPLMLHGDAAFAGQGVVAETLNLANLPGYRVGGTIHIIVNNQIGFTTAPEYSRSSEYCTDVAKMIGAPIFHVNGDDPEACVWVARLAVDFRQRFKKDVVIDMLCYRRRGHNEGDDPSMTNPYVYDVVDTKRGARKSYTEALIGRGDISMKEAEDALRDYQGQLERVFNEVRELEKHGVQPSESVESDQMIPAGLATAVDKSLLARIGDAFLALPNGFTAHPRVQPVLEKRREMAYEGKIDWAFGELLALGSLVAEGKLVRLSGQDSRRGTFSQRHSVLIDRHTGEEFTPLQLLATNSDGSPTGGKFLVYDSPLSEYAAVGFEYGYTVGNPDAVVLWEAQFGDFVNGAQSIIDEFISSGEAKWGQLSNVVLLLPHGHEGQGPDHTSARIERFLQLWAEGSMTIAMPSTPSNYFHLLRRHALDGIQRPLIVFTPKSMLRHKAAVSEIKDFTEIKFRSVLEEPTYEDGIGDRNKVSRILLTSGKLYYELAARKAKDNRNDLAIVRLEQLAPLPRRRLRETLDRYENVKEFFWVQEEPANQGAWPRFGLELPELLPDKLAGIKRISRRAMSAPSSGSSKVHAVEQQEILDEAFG
# Variants of: B1
# Conditions: with dhe2_myctu gdh
row,Variant,effect of a mutation on the interaction
1,R143E,disrupting interaction
2,S95A,decreasing interaction
3,K141E,disrupting interaction

# Variants of: B1
# Conditions: with gltb_myctu gltB
row,Variant,effect of a mutation on the interaction
1,N117A,disrupting interaction
2,S95A,disrupting interaction
3,K141E,disrupting interaction

# Variants of: B1
# Conditions: with dhe2_myctu gdh
# Remark: another data set of the same source
row,Variant,effect of a mutation on the interaction
1,N117A,decreasing interaction

# Variants of: B2
# Conditions: with kgd_myctu kgd
row,Variant,effect of a mutation on the interaction
1,K141E,disrupting interaction
2,R143E,disrupting interaction
3,N117A,disrupting interaction
